Residue numbers refer to the chain shown, from its start. Names and notes keep the numbering of the source.

Our source for the Kd values is patent US20230416361A1 (MIROBIO, published 2023).

T1: monomeric soluble human CD200R extracellular domain (human, UniProt Q8TD46 29-265)
T1 construct: extracellular domain; also called hCD200R; monomeric CD200R protein
T1 sequence (looked up): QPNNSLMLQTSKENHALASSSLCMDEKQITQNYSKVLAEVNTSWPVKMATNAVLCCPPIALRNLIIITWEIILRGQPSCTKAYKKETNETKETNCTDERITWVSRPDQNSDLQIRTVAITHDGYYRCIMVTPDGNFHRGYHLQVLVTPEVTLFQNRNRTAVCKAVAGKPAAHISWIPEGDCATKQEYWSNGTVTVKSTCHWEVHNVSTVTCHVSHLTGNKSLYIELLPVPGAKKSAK

B1: hu2131_v8 (antibody, human IgG1, V domains shown)
VH: QVQLVQSGAEVKKPGASVKLSCKASGHTFTSYWMHWVKQAPGQGLEWIGNIYPGSGSINYDEKFQGRATLTVDTSTRTAYMELSSLRSEDTAVYYCLTMTGTSWGRGTLVTVSS
VL: DVQMTQSPSSLSVSVGDRVTITCQASQGTPINLHWFQQKPGKAPKLLISGASNLEDGVPSRFSGSRYGTDFTFTISSLQPEDIATYFCLQFTYIPWTFGQGTKLEIK
notes: Expressed as human IgG1 with P238D Fc mutation
B2: hu2131_v9 (antibody, human IgG1, V domains shown)
VH: B1 VH
VL: B1 VL with V2I, R66G, Y67S, F87Y
notes: as for B1
B3: hu2131_v14 (antibody, human IgG1, V domains shown)
VH: B1 VH with L20V, K38R, A68V, L70M, R77S
VL: B1 VL with V2I, R66G, Y67S, F87Y
notes: as for B1
B4: hu2131_v5 (antibody, human IgG1, V domains shown)
VH: B1 VH with A9S, V11L, T91S
VL: B1 VL with V2I, R66G, Y67S, D70E, I83A, F87Y
notes: as for B1
B5: hu2131_v13 (antibody, human IgG1, V domains shown)
VH: B1 VH with L20V, K38R, A68V, L70M, R77S
VL: B1 VL
notes: as for B1
B6: hu2131_v15 (antibody, human IgG1, V domains shown)
VH: B1 VH with L20V, K38R, A68V, L70M, R77S
VL: B1 VL with V2I, R66G, Y67S, D70E, I83A, F87Y
notes: as for B1
B7: hu2131_v4 (antibody, human IgG1, V domains shown)
VH: B1 VH with A9S, V11L, T91S
VL: B1 VL with V2I, R66G, Y67S, F87Y
notes: as for B1
B8: hu2131_v16 (antibody, human IgG1, V domains shown)
VH: B1 VH with L20V, K38R, I48M, A68V, L70M, V72A, R77S, A79V
VL: B1 VL with I21M, D70A, F73L, P80D
notes: as for B1
B9: hu2131_v10 (antibody, human IgG1, V domains shown)
VH: B1 VH
VL: B1 VL with V2I, R66G, Y67S, D70E, I83A, F87Y
notes: as for B1
B10: hu2131_v7 (antibody, human IgG1, V domains shown)
VH: B1 VH
VL: B1 VL with I21M, D70A, F73L
notes: as for B1
B11: hu2131_v12 (antibody, human IgG1, V domains shown)
VH: B1 VH with L20V, K38R, A68V, L70M, R77S
VL: B1 VL with I21M, D70A, F73L
notes: as for B1
B12: hu2131_v6 (antibody, human IgG1, V domains shown)
VH: B1 VH
VL: B1 VL with I21M, D70A, F73L, P80D
notes: as for B1
B13: hu2131_v11 (antibody, human IgG1, V domains shown)
VH: B1 VH with L20V, K38R, A68V, L70M, R77S
VL: B1 VL with I21M, D70A, F73L, P80D
notes: as for B1
B14: hu2131_v1 (antibody, human IgG1, V domains shown)
VH: B1 VH with A9S, V11L, T91S
VL: B1 VL with I21M, D70A, F73L, P80D
notes: as for B1
B15: hu2131_v17 (antibody, human IgG1, V domains shown)
VH: B1 VH with L20V, K38R, I48M, A68V, L70M, V72A, R77S, A79V
VL: B1 VL with I21M, D70A, F73L
notes: as for B1
B16: hu2131_v3 (antibody, human IgG1, V domains shown)
VH: B1 VH with A9S, V11L, T91S
VL: B1 VL
notes: as for B1
B17: hu2131_v2 (antibody, human IgG1, V domains shown)
VH: B1 VH with A9S, V11L, T91S
VL: B1 VL with I21M, D70A, F73L
notes: as for B1

For this test, the target named is T1, monomeric soluble human CD200R …. Description: BLI (Octet), antibody on anti-human Fc probes, monomeric CD200R in solution, 25 C, 1:1 global fit. As to the method:
Humanised variant antibodies combining the different heavy and light variable domains described in Example 6 were produced by transient transfection of HEK293 cells. All antibodies were expressed on a human IgGI isotype with a P238D Fc mutation. The unpurified supernatants were analysed by Protein A-HPLC to determine the antibody concentrations, as a measure of expression yield. […] Binding affinity of humanized variants to human CD200R was assessed by bio-layer interferometry on an Octet R4 instrument. Each antibody was captured directly onto anti-human Fc capture probes (Sartorius 18-5060) for 60 sec followed by baseline setting in assay buffer (DPBS, 0.01% Polysorbate-20). Association of monomeric CD200R protein to immobilised antibodies was measured in 4 different protein concentrations (300, 100, 30 and 10 nM in assay buffer) at 25° C., with an association time of 120s and dissociation of 120s in assay buffer only. A reference probe with no antibody immobilised was used for background subtraction. Kinetic rate constants and binding KDs were calculated using Octet Analysis Studio 12 software. Global curve fitting based on all 4 concentrations using a 1:1 model was performed, from which kon and koff were obtained to calculate KD using the relationship KD=koff/kon.
What is called Kd is a measure of binding affinity in units of concentration. Higher therefore signals a looser complex. In the case of B1, the affinity, expressed as Kd, was 3.18 pM.
With B2, the Kd was found to be 3.07 pM.
Turning to B3, binding was put at a Kd of 2.9 pM.
Next, B4: 5 pM.
Consider B5, for which the Kd worked out at 2.94 pM.
Next, B6: 3.18 pM; B7: 2.74 pM.
Under B8 stands 1.03 pM.
As for B9, binding was characterised by a dissociation constant (Kd) of 4.43 pM.
Under B10 stands 3.06 pM.
Under B11 stands 4.14 pM; under B12, 3.96 pM.
Next, B13: 2.45 pM; B14: 3.63 pM; B15: 183 pM.
For B16, the Kd was determined as 3.88 pM.
In the case of B17, the Kd amounted to 3.84 pM.
